Our source for the average binding frequency and koff values is paper PMC2171822.

In the assay the target is tetramethylrhodamine-labeled microtubule (tubulin purified from bovine brain) (bovine) (UniProt Q6B856). The experiment in a line: fluorescence microscopy of kinesin-coated beads binding to a single microtubule.

“native kinesin purified from bovine brain (complex)” came in with an average binding frequency of 0.018 μm^−1 s^−1 and a koff of 0.004 s⁻¹.
